Test results reported in paper PMC11410209.

Molecular target: 2526 IgG3
Assay: ELISA
Details: read at the highest mAb concentration, 10 µg/ml; parent: est. 4.0; read off a plot

In the case of “BG505.SOSIP with a glycan at position 332 (Fig 5C) N332T”, the response is reported as 3.1 Abs (450nm).
